Experimental data reported in PMC7109055.

Legend:
[1] = molecular target: His6-VanSSC (full-length VanS sensor histidine kinase from Streptomyces coelicolor) (Streptomyces coelicolor) (UniProt Q9X942); experiment: SEC; analytical gel filtration on Superose 12 10/300; 20 mM HEPES pH 7.8, 200 mM NaCl (legend: 300 mM NaCl), 0.075% DPC; elution volume compared with protein standards
[2] = molecular target: His6-VanSSC (full-length VanS sensor histidine kinase from Streptomyces coelicolor) (Streptomyces coelicolor) (UniProt Q9X942); experiment: native gel or EMSA

His6-VanSSC (full-length VanS sensor histidine kinase from Streptomyces coelicolor) (from UniProt Q9X942 1-364) (enzyme)
stoichiometry N [1]: 2 | stoichiometry N [2]: 2
